Read-outs that look alike come from different tables or passages of the source.

The target in test [1] is GAN·GINS complex of Thermococcus kodakarensis, formed on the SPR chip from the purified recombinant proteins (Thermococcus kodakarensis). The experiment in a line: SPR. In general terms: In SPR one partner is held on a chip, and binding of the other changes the refractive index at the surface.
Test [2] shares this target. Briefly: SPR. This is another data set of the same source.

With “MCM3 (minichromosome maintenance helicase) of Thermococcus kodakarensis, homohexamer, recombinant (enzyme)”, the Kd (usually the concentration at which binding is half-saturated) amounted to 0.18 µM in test [1] and 0.19 µM in test [2].

Values taken from publication PMC5737688.
